From article doi:10.1101/2020.12.07.415471 (bioRxiv, 2020)

How the values were obtained:
[1] = target: N-terminally thioredoxin (Trx)-tagged Ct domain of CaeA2 (Actinoalloteichus cyanogriseus) (UniProt M1F4W8); test: ITC
[2] = target: T1, N-terminally thioredoxin (Trx)-tagged Ct domain of CaeA2 (Actinoalloteichus cyanogriseus, UniProt M1F4W8 2080-2484); test: ITC
T1 sequence (looked up): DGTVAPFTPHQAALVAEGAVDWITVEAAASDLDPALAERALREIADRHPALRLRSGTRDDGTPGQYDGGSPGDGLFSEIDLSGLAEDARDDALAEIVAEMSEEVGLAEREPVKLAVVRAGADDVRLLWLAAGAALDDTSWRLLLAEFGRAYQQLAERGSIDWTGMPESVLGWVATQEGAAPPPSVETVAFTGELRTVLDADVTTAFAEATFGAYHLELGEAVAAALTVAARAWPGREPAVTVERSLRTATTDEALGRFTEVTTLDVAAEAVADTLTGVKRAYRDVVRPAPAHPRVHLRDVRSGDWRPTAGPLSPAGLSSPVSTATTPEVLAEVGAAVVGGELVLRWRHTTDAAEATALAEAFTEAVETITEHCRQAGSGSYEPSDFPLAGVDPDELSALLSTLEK

Work on ColB1 (enzyme) yielded a Kd [1] of 1180 nM.

B1: MBP-fused CaeB1 variant (enzyme)
chain: MTTGNGAAPPPLTRLSPEDEAWRAHVRAFAEEHIAPLSDRMDRDATLDPGLREKLFSAGLMAVEAPARYGGRGGSLFQVVLTIEEVARVDPGVAVGVDVHNALVVATLLRQGTGDQKRRRLPLLATRQVGAFALSEENAGSDAFAGTTTAVPTSDGGYRINGRKRWTSNAGQADVFLVFARTEGHGSSAFLVDRTAEGLSIDPRTEQMGVRAAATADVVLTDVRVRRQDCVGGPGGGEGVAIGALDIGRIGIAAQMVGLAQGALDEAVAYSRTREQFGQPIGSYQGVRFTLADIATEVAAARALLYDVTRTVAAGTDIAERLRLTAMAKYFASQVAERAASRALEVLGGNGFTREYPLERFYRDVKAGKIYEGTSNMLLRSIAGSL
Molecule B1 has a Kd [2] of 530 ± 120 nM.
